# In US20250011363A1, “OPTIMIZED SHORTENED PEPTIDE THAT BINDS TO ACETYLCHOLINE RECEPTOR, AND USE THEREOF” (SKINMED CO., LTD., priority 2021, published 2025):
# Biological target: acetylcholine receptor (Homo sapiens, UniProt P02708)
# Assay: SPR binding affinity (RU) of optimized 5mer/6mer/7mer peptides, Examples 6-7
# Conditions: SPR, peptides tested at 10 μM; 5mer Top sequence
# Procedure: Based on the frequencies of occurrence of the top 7 amino acids from Table 7 in Example 5, 600 peptides comprising these amino acids (top combinations) and those comprising the 13 less frequently occurring amino acids (bottom combinations) were synthesized for each series of 5mer, 6mer-1, and 6mer-2. The binding affinity of each sequence for the acetylcholine receptor was measured using Surface Plasmon Resonance (SPR) analysis method. The peptides were tested at a concentration of 10 μM. Additionally, the average binding affinities of the top and bottom combinations in each series are depicted in FIGS. 5-7.
# Representative peptides identified in Example 6, two in each library, including 5mers (73, 311) and 6mers-1 (43, 210) and 6mers-2 (136, 233), were compared with the pre-optimized 6mer, 5mer-ND, and Synake.
# Chain of acetylcholine receptor (P02708 21-457): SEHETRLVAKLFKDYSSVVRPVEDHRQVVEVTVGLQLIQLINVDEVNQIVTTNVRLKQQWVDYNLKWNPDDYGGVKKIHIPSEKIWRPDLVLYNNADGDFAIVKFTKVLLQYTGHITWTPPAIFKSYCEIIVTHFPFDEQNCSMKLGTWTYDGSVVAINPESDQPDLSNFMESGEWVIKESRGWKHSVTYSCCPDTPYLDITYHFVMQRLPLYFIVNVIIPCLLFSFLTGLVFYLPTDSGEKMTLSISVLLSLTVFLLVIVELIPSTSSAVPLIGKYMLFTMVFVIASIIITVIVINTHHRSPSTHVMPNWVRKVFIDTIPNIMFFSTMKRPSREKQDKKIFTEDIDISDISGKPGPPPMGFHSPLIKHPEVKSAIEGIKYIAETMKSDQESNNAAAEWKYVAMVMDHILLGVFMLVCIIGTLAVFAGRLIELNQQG
row,Substance,Binding affinity [Ru]
1,5mer-301 (KWIRK),64
2,5mer-302 (RRILK),70
3,5mer-303 (KGRYR),87
4,5mer-304 (RSVRK),76
5,5mer-305 (KRICK),72
6,5mer-306 (KSYYR),74
7,5mer-307 (KQRCK),82
8,5mer-308 (RLRCR),84
9,5mer-309 (KVQYR),70
10,5mer-310 (KSRQR),78
11,5mer-312 (KRYCR),81
12,5mer-313 (RSQLK),75
13,5mer-314 (RWYTR),80
14,5mer-315 (KLFSR),77
15,5mer-316 (KQYLR),73
16,5mer-317 (RRVQR),86
17,5mer-318 (KRVCK),64
18,5mer-319 (RVQTR),74
19,5mer-320 (RVVQR),75
20,5mer-321 (RSLSR),68
21,5mer-322 (RRQSR),84
22,5mer-323 (KWYYR),77
23,5mer-324 (KSQRR),58
24,5mer-325 (KRIQR),50

row,Substance,Binding affinity [Ru]
1,5mer-326 (RRFTK),68
2,5mer-327 (RVLCR),86
3,5mer-328 (RWVLK),61
4,5mer-329 (RRFCR),79
5,5mer-330 (RWQLR),86
6,5mer-331 (RGIQR),79
7,5mer-332 (RRYCR),85
8,5mer-333 (RVLQR),67
9,5mer-334 (KRFYK),64
10,5mer-335 (KSLTR),56
11,5mer-336 (KSVSR),83
12,5mer-337 (KGRSR),67
13,5mer-338 (RWILR),61
14,5mer-339 (KWVRK),87
15,5mer-340 (KGYRR),51
16,5mer-341 (RWYRR),52
17,5mer-342 (KVYQR),69
18,5mer-343 (KSFSR),60
19,5mer-344 (KQFQR),52
20,5mer-345 (RQQRR),86
21,5mer-346 (KGISK),57
22,5mer-347 (KRICR),78
23,5mer-348 (KRQTK),80
24,5mer-349 (KQVYR),50

row,Substance,Binding affinity [Ru]
1,5mer-350 (KSYYK),59
2,5mer-351 (KSFSK),75
3,5mer-352 (RLVRK),76
4,5mer-353 (KSQLK),59
5,5mer-354 (RSQTR),64
6,5mer-355 (KLLYR),87
7,5mer-356 (KQVLR),65
8,5mer-357 (RGFRK),54
9,5mer-358 (KVRSK),50
10,5mer-359 (KRFQK),79
11,5mer-360 (RQLCK),66
12,5mer-361 (RSYQR),58
13,5mer-362 (KQRLK),62
14,5mer-363 (KRVRK),59
15,5mer-364 (RWITR),62
16,5mer-365 (KRRYK),52
17,5mer-366 (RQLQK),52
18,5mer-367 (RSVQK),71
19,5mer-368 (KRIRR),50
20,5mer-369 (RGFTR),84
21,5mer-370 (KWRRK),67
22,5mer-371 (RGISK),86
23,5mer-372 (RSVCR),54
24,5mer-373 (KVFTK),87

row,Substance,Binding affinity [Ru]
1,5mer-374 (KLFTR),75
2,5mer-375 (KQLCR),84
3,5mer-376 (KGQLR),65
4,5mer-377 (KGFYK),67
5,5mer-378 (RRLSK),65
6,5mer-379 (KSRLR),79
7,5mer-380 (KRYLK),82
8,5mer-381 (KGQRR),87
9,5mer-382 (RLRQR),62
10,5mer-383 (RWQRK),56
11,5mer-384 (KSLRK),75
12,5mer-385 (RGVYR),51
13,5mer-386 (RSFLK),78
14,5mer-387 (RRILR),52
15,5mer-388 (KLFCK),78
16,5mer-389 (KWRRR),57
17,5mer-390 (KRFCR),64
18,5mer-391 (KVFRR),72
19,5mer-392 (RSRLR),87
20,5mer-393 (KSLQR),75
21,5mer-394 (KRRRK),66
22,5mer-395 (RWVCK),50
23,5mer-396 (KVVCR),53
24,5mer-397 (RRITK),52

row,Substance,Binding affinity [Ru]
1,5mer-398 (KGQCR),71
2,5mer-399 (KWIQR),62
3,5mer-400 (RWRCK),70
4,5mer-401 (RGVLR),52
5,5mer-402 (RLRYR),86
6,5mer-403 (RRLYK),64
7,5mer-404 (KGYLK),83
8,5mer-405 (KSYTK),68
9,5mer-406 (KVYLR),84
10,5mer-407 (RQIYK),58
11,5mer-408 (KVFRK),74
12,5mer-409 (KQIYK),62
13,5mer-410 (RRFLR),76
14,5mer-411 (KGRLR),66
15,5mer-412 (RGRSR),81
16,5mer-413 (RWLTR),56
17,5mer-414 (KVRCK),71
18,5mer-415 (KVFLR),77
19,5mer-416 (KLYLR),67
20,5mer-417 (KWLQK),65
21,5mer-418 (RWRTR),53
22,5mer-419 (RVYTR),67
23,5mer-420 (KLFCR),84
24,5mer-421 (RVVYK),68

row,Substance,Binding affinity [Ru]
1,5mer-422 (KWICK),87
2,5mer-423 (RRQLK),60
3,5mer-424 (RVYLK),87
4,5mer-425 (RGFYR),80
5,5mer-426 (RRVSR),57
6,5mer-427 (RGLYR),87
7,5mer-428 (RQFLK),86
8,5mer-429 (KSQYK),63
9,5mer-430 (KWRTK),80
10,5mer-431 (KVQLK),81
11,5mer-432 (RQVRR),52
12,5mer-433 (KWRCR),73
13,5mer-434 (RVLQK),74
14,5mer-435 (KLRQR),69
15,5mer-436 (RVFYK),60
16,5mer-437 (RVRLR),50
17,5mer-438 (RVRSR),76
18,5mer-439 (KRVTR),65
19,5mer-440 (RQVTK),57
20,5mer-441 (KLIRK),53
21,5mer-442 (KVRLR),61
22,5mer-443 (RGFTK),80
23,5mer-444 (KQQYR),65
24,5mer-445 (RLFTR),77

row,Substance,Binding affinity [Ru]
1,5mer-446 (RGLQK),53
2,5mer-447 (KGYYK),76
3,5mer-448 (RQIRK),74
4,5mer-449 (KGLYR),65
5,5mer-450 (RVIQK),78
6,5mer-451 (RQVLK),53
7,5mer-452 (RGVSK),82
8,5mer-453 (KGVCR),68
9,5mer-454 (RQVLR),77
10,5mer-455 (RWLYK),61
11,5mer-456 (RLVCK),52
12,5mer-457 (RGQYK),59
13,5mer-458 (RRFLK),65
14,5mer-459 (RSQLR),76
15,5mer-460 (RLQQR),74
16,5mer-461 (KQLLK),74
17,5mer-462 (RWQSK),69
18,5mer-463 (KWYTK),52
19,5mer-464 (RGVTR),57
20,5mer-465 (RWFRK),57
21,5mer-466 (RRVRK),53
22,5mer-467 (RRIYR),83
23,5mer-468 (RWQCK),54
24,5mer-469 (KSRRR),69
